Source: article PMC6150197, “NeoBOMB1, a GRPR-Antagonist for Breast Cancer Theragnostics: First Results of a Preclinical Study with [^67Ga]NeoBOMB1 in T-47D Cells and Tumor-Bearing Mice” (Molecules : A Journal of Synthetic Chemistry and Natural …, 2017)

Experiment: in vivo
Conditions: female, SCID, mouse, iv, total radioactivity, Biodistribution, mean ± sd, n = 4; for tissue uptake at 4 h: 4 h pi; for tissue uptake at 1 h: 1 h pi; for tissue uptake at 24 h: 24 h pi
Method: Female SCID mice (15 ± 3 g, six weeks of age animals at the day of arrival, NCSR “Demokritos” Animal House Facility) were acclimatized under aseptic conditions and treated with estrogens (receiving 4 mg/L β-estradiol, Sigma-Aldrich, St. Louis, MO, USA, in their drinking water,) for a week prior to inoculation. A ≈ 150 μL bolus containing a suspension of ≈1.2 × 10^7 freshly harvested human T-47D cells suspended in Matrigel (Corning Life Sciences, Inc., Bedford, MA, USA) was subcutaneously injected in their flanks. The animals were kept under estrogen treatment for additional 8 weeks till they developed well-palpable tumors (100–200 mg) at the inoculation sites.
On the day of the experiment animals were allowed access to water, but not to food. Animals in 3 groups of 4 received a 100 μL bolus of [^67Ga]NeoBOMB1 (37 kBq, corresponding to 10 pmol, or 200 pmol total peptide or 40 nmol for in vivo GRPR-blockade for each of the 3 groups) was injected in the tail vein; animals were euthanized at 4 h pi and dissected. Samples of blood, tumors and organs of interest were collected, weighed and measured for radioactivity in the gamma counter. Intestines and stomach were not emptied of their contents. In another experimental setting, mice in 3 groups of 4 received a 100 μL bolus of [^67Ga]NeoBOMB1 (37 kBq, 200 pmol); they were euthanized at 1 h, 4 h and 24 h pi and biodistribution was conducted as described above. Statistical analysis was conducted using the unpaired two-tailed Student’s t-test; values p < 0.05 were considered statistically significant.

[1] = T-47D tumor, 200 pmol, Tumor, 200 pmol peptide (0.185 MBq/nmol) iv, Table 2 time study
[2] = blood, 200 pmol, 200 pmol peptide (0.185 MBq/nmol) iv, Table 2 time study
[3] = femur, 200 pmol, 200 pmol peptide (0.185 MBq/nmol) iv, Table 2 time study
[4] = heart, 200 pmol, 200 pmol peptide (0.185 MBq/nmol) iv, Table 2 time study
[5] = intestines (not emptied), 200 pmol, Intestines, 200 pmol peptide (0.185 MBq/nmol) iv, Table 2 time study
[6] = kidneys, 200 pmol, 200 pmol peptide (0.185 MBq/nmol) iv, Table 2 time study
[7] = liver, 200 pmol, 200 pmol peptide (0.185 MBq/nmol) iv, Table 2 time study

SMILES: CC(C)CC(CC(C)C)NC(=O)[C@H](Cc1cnc[nH]1)NC(=O)CNC(=O)[C@@H](NC(=O)[C@H](C)NC(=O)[C@H](Cc1c[nH]c2ccccc12)NC(=O)[C@H](CCC(N)=O)NC(=O)[C@@H](Cc1ccccc1)NC(=O)COCC(=O)Nc1ccc(CNC(=O)CN2CCN(CC(=O)O)CCN(CC(=O)O)CCN(CC(=O)O)CC2)cc1)C(C)C [[^67Ga]NeoBOMB1, metal not drawn]
- tissue uptake at 4 h (T-47D tumor, 10 pmol, Tumor, 10 pmol peptide (3.7 MBq/nmol) iv): 9.52 ± 2.15 %ID/g
- tissue uptake at 1 h [1]: 7.4 ± 0.68 %ID/g
- tissue uptake at 4 h (T-47D tumor, 200 pmol, Tumor, 200 pmol peptide (0.185 MBq/nmol) iv, Table 1 dose study): 7.79 ± 1.54 %ID/g
- tissue uptake at 4 h [1]: 8.67 ± 2.88 %ID/g
- tissue uptake at 24 h [1]: 7.89 ± 1.13 %ID/g
- tissue uptake at 4 h (T-47D tumor, 40 nmol, Tumor, 40 nmol NeoBOMB1, in vivo GRPR-blockade): 0.6 ± 0.1 %ID/g
- tissue uptake at 1 h [2]: 5.78 ± 0.29 %ID/g
- tissue uptake at 4 h [2]: 0.52 ± 0.03 %ID/g
- tissue uptake at 24 h [2]: 0.15 ± 0.01 %ID/g
- tissue uptake at 4 h (femur, 10 pmol, 10 pmol peptide (3.7 MBq/nmol) iv): 0.58 ± 0.06 %ID/g
- tissue uptake at 1 h [3]: 0.73 ± 0.11 %ID/g
- tissue uptake at 4 h (femur, 200 pmol, 200 pmol peptide (0.185 MBq/nmol) iv, Table 1 dose study): 0.28 ± 0.01 %ID/g
- tissue uptake at 4 h [3]: 0.37 ± 0.02 %ID/g
- tissue uptake at 24 h [3]: 0.24 ± 0.08 %ID/g
- tissue uptake at 4 h (femur, 40 nmol, 40 nmol NeoBOMB1, in vivo GRPR-blockade): 0.31 ± 0.02 %ID/g
- tissue uptake at 4 h (heart, 10 pmol, 10 pmol peptide (3.7 MBq/nmol) iv): 0.26 ± 0.01 %ID/g
- tissue uptake at 1 h [4]: 1.94 ± 0.09 %ID/g
- tissue uptake at 4 h (heart, 200 pmol, 200 pmol peptide (0.185 MBq/nmol) iv, Table 1 dose study): 0.34 ± 0.04 %ID/g
- tissue uptake at 4 h [4]: 0.52 ± 0.04 %ID/g
- tissue uptake at 24 h [4]: 0.22 ± 0.04 %ID/g
- tissue uptake at 4 h (heart, 40 nmol, 40 nmol NeoBOMB1, in vivo GRPR-blockade): 0.38 ± 0.02 %ID/g
- tissue uptake at 1 h [5]: 10.6 ± 0.87 %ID/g
- tissue uptake at 4 h [5]: 18.5 ± 2.12 %ID/g
- tissue uptake at 24 h [5]: 2.31 ± 0.34 %ID/g
- tissue uptake at 4 h (intestines, 10 pmol, Intestines (not emptied), 10 pmol peptide (3.7 MBq/nmol) iv): 16.7 ± 2.18 %ID/g
- tissue uptake at 4 h (intestines, 200 pmol, Intestines (not emptied), 200 pmol peptide (0.185 MBq/nmol) iv, Table 1 dose study): 15.1 ± 1.52 %ID/g
- tissue uptake at 4 h (intestines, 40 nmol, Intestines (not emptied), 40 nmol NeoBOMB1, in vivo GRPR-blockade): 11.1 ± 2.71 %ID/g
- tissue uptake at 4 h (kidneys, 10 pmol, 10 pmol peptide (3.7 MBq/nmol) iv): 3.4 ± 0.45 %ID/g
- tissue uptake at 1 h [6]: 7.33 ± 0.47 %ID/g
- tissue uptake at 4 h (kidneys, 200 pmol, 200 pmol peptide (0.185 MBq/nmol) iv, Table 1 dose study): 2.76 ± 0.26 %ID/g
- tissue uptake at 4 h [6]: 3.1 ± 0.75 %ID/g
- tissue uptake at 24 h [6]: 2.15 ± 0.42 %ID/g
- tissue uptake at 4 h (kidneys, 40 nmol, 40 nmol NeoBOMB1, in vivo GRPR-blockade): 3.95 ± 0.94 %ID/g
- tissue uptake at 4 h (liver, 10 pmol, 10 pmol peptide (3.7 MBq/nmol) iv): 3.37 ± 0.19 %ID/g
- tissue uptake at 1 h [7]: 25.7 ± 1.97 %ID/g
- tissue uptake at 4 h (liver, 200 pmol, 200 pmol peptide (0.185 MBq/nmol) iv, Table 1 dose study): 6.5 ± 0.34 %ID/g
- tissue uptake at 4 h [7]: 7.05 ± 0.31 %ID/g
- tissue uptake at 24 h [7]: 2.26 ± 0.18 %ID/g
